B1: TCL1 65-79 peptide (TQIGPSLLPIMWQLY) (peptide)
peptide: TQIGPSLLPIMWQLY
notes: Synthetic peptide (Sigma-Aldrich, >70% purity); also called P17

Legend:
[1] = biological target: T1, HLA-A2 (HLA-A*0201) on TAP-deficient T2 cells (human); experiment: T2 binding assay, flow cytometry for HLA-A2
T1 construct: also called MHC I (HLA-A2)
Method: (§1) TAP-deficient T2 cells were incubated with 20 μg/ml of peptides and 3 μg/ml of β₂-microglobulin (Sigma-Aldrich, Cat # M4890) for 24 hours at 37° C. and 5% CO₂ in air. […] The binding affinity of the peptide to HLA-A2 (T2 binding index) was quantified as follows: (Mean fluorescence intensity [MFI] of HLA-A2 with peptide—MFI of HLA-A2 without peptide)/(MFI of HLA-A2 without peptide).

[2] = biological target: T1, HLA-A2 (HLA-A*0201) on TAP-deficient T2 …; experiment: T2 cell peptide-binding assay, flow cytometry for HLA-A2
Method: as §1

| Binder | binding result [1] | binding result [2] |
| --- | --- | --- |
| B1 | binds | – |
| LLPIMWQL (Synthetic peptide) [TCL1 71-78 peptide (LLPIMWQL)] | – | binds |

Reference: patent US20140348902A1 (University of Texas, published 2014)
